The values below come from patent US12637685B2, “Method for rapid genome modification in recalcitrant plants” (KWS SAAT SE & Co. KGaA, priority 2020, dated 2026).

Common to all, as to type: cell-based
Test [1] relates to CRISPR target m7GEP1 (maize HMG13 gene) in corn A188 immature embryos. Put plainly: SDN-1 efficiency after co-delivery of TSA with editing plasmids, target m7GEP1, Taqman ddPCR (Example 18). The conditions noted are these: 15 ng TSA co-bombarded, 48 hours after bombardment, 6 repeats. The procedure:
(§1) The amounts of TSA used for a bombardment with 100 μg of gold particles (approximately, 4.0-5.0×10^7 gold particles size of 0.6 micron) is 15 ng. Specifically, the plasmid DNA and TSA were co-coated onto gold particles for bombardment as follows. For 10 shots, 100 microlite (μl) of 10 mg/ml 0.6 μm gold particle in 50% (v/v) glycerol particle stock solution (1.0 mg of the gold particles in total for 10 shots, and 100 μg per shot) was pipetted into a clear low-retention microcentrifuge tube. Sonicate for 15 seconds to suspend the gold particles. While vortex at a low speed, add the following in order: • 1.0 μg of pGEP1054 (FIG. 15), 1.5 μg of pGEP842 (FIG. 2) or pGEP1067 (FIG. 32) • 100 μl of 2.5 M CaCl2 (pre-cold on ice) • 40 μl of 0.1 M cold spermidine Close the lid and vortex the tube for 5 minutes at room temperature and spin down the DNA-coated gold particles. After washing in 1000 μl of 100% ethanol (pre-cold at −20° C.) for two times, the pellet was resuspended in 120 μl of 100% ethanol. Finally, 150 ng of TSA was added into the resuspended gold particle solution carefully. While vertexing at a low speed, pipet 10 μl of TSA co-coated gold particles with a wide open 20 μl tip from the tube onto the center of the macrocarrier evenly. Since the particles tend to form clumps at this point, get the gold particles onto the macrocarriers as soon as possible. […]

Test [2] has as its system CRISPR target m7GEP22 (maize HMG13 gene) in corn A188 immature embryos. Put plainly: SDN-1 efficiency after co-delivery of TSA with editing plasmids, target m7GEP22, Taqman ddPCR (Example 18). The settings on record: 15 ng TSA co-bombarded, 48 hours after bombardment, 6 repeats. The procedure:
as §1

For test [3], the system named is maize HMG13 gene in maize A188 immature embryos. Put plainly: Genome editing SDN-1 in regenerated T0 plants of maize A188 (Example 5). The settings on record: for Total SDN-1: T0 events; for Bi-SDN-1: T0 events with bi-allelic SDN-1; for Mon-SDN-1: T0 events with mono-allelic SDN-1; for % SDN-1/IE: per immature embryo initially used; for % SDN-1/Event: per regenerated T0 event; for Total Events: regenerated T0 events, co-bombarded with pGEP837 and pGEP842. The procedure:
Specifically, construct pGEP837 (SEQ ID NO: 52, FIG. 1) and the crRNA construct pGEP842 (SEQ ID NO: 53, FIG. 2) were co-bombarded with the different boosters as indicated into maize A188 immature embryos by particle bombardment. For each bombardment (shot), 100 ng of plasmid pGEP837 were cocoated with 150 ng of plasmid pGEP842 and 100 ng each of different boost constructs onto 100 μg of 0.4 μm gold particles using calcium-spermidine method. Three bombardments (shots) per sample plate were performed.
(§2) After bombardment the embryos were remained on the osmotic medium (N60SM) for another 16-20 hours. The embryos were transferred from the osmotic medium onto embryogenic callus induction medium (e.g. N6_5Ag) in a petri dish plate (100×25 mm) with scutellum-face-up, at a density of 12-15 embryos per plate. The embryos were incubated at 27° C. in dark for the embryogenic callus induction. After embryogenic callus induction in N6_5Ag medium for 10-14 days the induced calluses were transferred onto embryo maturation medium MRM1 in petro dish (100×25 mm), and cultured at 27° C. in dark for 10 days, and then at 25° C., weak light (20-50 μmol m^−2 s^−1) for 2-4 days. The mature somatic embryos were then transferred onto MSO medium (see below) in phytotray for plant outgrowth and further development for 5-7 days. A 5-10 mm leaf tip from each of the leaves of a T0 plant is collected for DNA extraction. The targeted genome editing SDN-1 in the regenerated T0 plants are screened by TaqMan real-time PCR (qPCR), and further conformed by Sanger sequencing trace decomposition analysis.

The subject of test [4] is maize HMG13 gene in immature embryos of maize recalcitrant elite 4V-40290. Put plainly: Genome editing SDN-1 in T0 plants of elite 4V-40290 (Example 13). The conditions noted are these: for Bi-SDN-1 / Mon-SDN-1 / Total SDN-1: T0 events; for % SDN-1/IE: per immature embryo initially used; for % SDN-1/Event: per regenerated T0 event; for Total Event: regenerated T0 events, co-bombarded with pGEP837 and pGEP842. The procedure:
as §2
(§3) The workflow was as described in Example 6. For immature embryo isolation, osmotic treatment, and bombardment, please see the description in Example 1. Specifically, genome editing constructs pGEP837 (SEQ ID NO: 52, FIG. 1) and pGEP842 (SEQ ID NO: 53, FIG. 2) were co-bombarded with the different boosters as indicated into the immature embryos of elite 4V-40290 by particle bombardment. For each bombardment (shot), 100 ng of plasmid pGEP837 and 150 ng of plasmid pGEP842 were cocoated with 100 ng each of different boost constructs onto 100 μg of 0.4 μm gold particles using calcium-spermidine method. Three bombardments (shots) per sample plate were performed. The bombarded embryos were transformed onto the embryogenic callus induction medium 16-20 hours after bombardment.
(§4) For plant regeneration, and genome editing SDN-1 screen and conformation in regenerated T0 plants please see Example 5 and Example 9.

Test [5] deals with maize HMG13 gene in immature embryos of maize recalcitrant elite 2V-20195. Put plainly: Genome editing SDN-1 in T0 plants of elite 2V-20195 (Example 12). The procedure:
as §2
as §3, with “embryos of maize elite 2V-20195” for “embryos of elite 4V-40290”, “maize elite 2V-20195 by particle” for “of elite 4V-40290 by particle”, “pGEP842 were co-coated with 100” for “pGEP842 were cocoated with 100”
as §4

Consider `CC(/C=C/C(=O)NO)=C\[C@@H](C)C(=O)c1ccc(N(C)C)cc1` [TSA, trichostatin A], for which the “increase in the SDN-1 efficiency compared to the control without TSA (CK)” value in test [1] turned out to be 61.5%; in test [2], 354.5%.

B1: RBP8: artificial regeneration booster protein, SEQ ID NO: 39 (CDS SEQ ID NO: 27), construct pABM-BdEF1_RBP8 (protein)
chain: MVSKGEEVIKEFSGSTRWNPTAEQVKVLREIYYRAGLRTPSADQIRQISSQLKRYGKVEGKNVFYWFQNHKARERQKKRLSTVGSAGSAAGSGEFRHVKTLPLFPLHNNEDSGSGLDLDLNLELRLSATAAATSGSQRASALDLDLELRLGFALGNESCGLHDN
In the case of B1, in test [3], the “Total SDN-1” value turned out to be 9, the Bi-SDN-1 is 5, the Mon-SDN-1 is given as 4 and the “% SDN-1/IE” value amounted to 39.1%. In test [3], the “% SDN-1/Event” value was 13.4% and the “Total Events” value is 67. In test [4], the Bi-SDN-1 came out at 1, the Mon-SDN-1 came out at 6, the “Total SDN-1” value is given as 7 and the “% SDN-1/IE” value is 28.0%. In test [4], the “% SDN-1/Event” value stood at 20.6% and the “Total Event” value was found to be 34.

B2: RBP7: artificial regeneration booster protein, SEQ ID NO: 38 (CDS SEQ ID NO: 26), construct pABM-BdEF1_RBP7 (protein)
chain: MVSKGEEVIKEFSGSTRWNPTAEQLSLLKELYYRNGIRTPSADQIRQISARLSRYGKIEGKNVFYWFQNHKARERQKKRLSTVGCDPALIEMGNVASLEFGTESALESLSSGPSSELREAPTRKFYEKKTVGENSTIINPVEQNCTLSCGTSQEFQYAVDSRRVMKAMEEKQATDDEPDGNKWTESNRHVKTLPLFPLHNNVETLPLFPEDSGSLDLELELGFASGGSAGSVDTLPLFPREAAGSGEFATAAATSGSQRASALDLCLSLGNESCGLHDN
Take B2: in test [3], the “Total SDN-1” value was 6, the Bi-SDN-1 is on record as 5, the Mon-SDN-1 turned out to be 1 and the “% SDN-1/IE” value was found to be 19.4%. Besides, in test [3], the “% SDN-1/Event” value worked out at 12.0% and the “Total Events” value is reported as 50.

B3: RBP2: artificial regeneration booster protein, SEQ ID NO: 33 (CDS SEQ ID NO: 21), expressed from construct pABM-BdEF1_RBP2 (protein)
chain: MESGSGTAAGSGYVYRQSGSTRWNPTAEQLSLLKELYYRNGIRTPSADQIRQISARLSRYGKIEGKNVFYWFQNHKARERQKKRLSTVGCDPALIEMGNVASLEFGTESALESLSSGPSSELREAPTRKFYEKKTVGENSTIINPVEQNCTLSCGTSQEFQYAVDSRRVMKAMEEKQATDDEPDGNKWTESNRHVKTLPLFPLHNNEDQTLIKSDKEIYCLGSCEKKMDLSPLGHSGSQRASALDLCLSLGNESCGLHDN
On to B3, for which, in test [5] (T0 events), the Bi-SDN-1 worked out at 1, the Mon-SDN-1 turned out to be 0 and the “Total SDN-1” value is recorded as 1. In addition, the “% SDN-1/IE” value in test [5] (per immature embryo initially used) is recorded as 2.1%. In addition, the “% SDN-1/Event” value in test [5] (per regenerated T0 event) is reported as 6.3%. Further, the “Total Event” value in test [5] (regenerated T0 events, co-bombarded with pGEP837 and pGEP842) is given as 16. In test [3], the “Total SDN-1” value was found to be 34, the Bi-SDN-1 came to 20, the Mon-SDN-1 turned out to be 14 and the “% SDN-1/IE” value is 22.7%. In test [3], the “% SDN-1/Event” value came out at 14.3% and the “Total Events” value turned out to be 237. In test [4], the Bi-SDN-1 was 2, the Mon-SDN-1 is 0, the “Total SDN-1” value stood at 2 and the “% SDN-1/IE” value came out at 9.1%. Moreover, in test [4], the “% SDN-1/Event” value turned out to be 13.3% and the “Total Event” value is recorded as 15.

B4: RBP5: artificial regeneration booster protein, SEQ ID NO: 36 (CDS SEQ ID NO: 24), construct pABM-BdEF1_RBP5 (protein)
chain: MVSKGEEVIKEFSGSTRWNPTAEQLSLLKELYYRNGIRTPSADQIRQISARLSRYGKIEGKNVFYWFQNHKARERQKKRLSTVGCGSAGSAAGSGEFRHVKTLPLFPLHNNVETLPLFPEDSGSLDLELELGFASATAAATSGSQRASALDLCLSLGNESCGLHDN
Take B4: in test [3], the “Total SDN-1” value is on record as 11, the Bi-SDN-1 is reported as 8, the Mon-SDN-1 was determined as 3 and the “% SDN-1/IE” value was 23.4%. For the same molecule, in test [3], the “% SDN-1/Event” value turned out to be 4.9% and the “Total Events” value was 224.
